Results reported in US20130336983A1 (TRUSTEES OF DARTMOUTH COLLEGE, published 2013).

Target: the molecule itself
Test: NMR spectroscopy of the 20-mer

LHHILMHLTEKAQEVTRKYQ [20-mer representing residues 120-139 of S14 domain III]
binding result: binds
